# Data taken from US20240251767A1.
# Molecular target: Spike protein of the COVID-19 Spike-ACE2 Binding Assay Kit (Raybiotech) (SARS-CoV2) (UniProt P0DTC2)
substance,measurement,value
human SAT Nb-Fc control VH-Ab-8 (HAb8-S) (Fc fusion),IC50,79 pM
